# Laboratory results taken from the DeepSol protein solubility set.
# Test: soluble on expression in E. coli; label from the status in PepcDB or PDB records
row,Sequence,soluble on expression in E. coli
1,MLRNLILITLLVASGHGQTPVIGGTCKLGTADVQIGGKQTQFFLKCETTADSAEGEGVWVVKSRAAAAPSSVPSVPAENTQPQQHPKARKPASPNICEQDNGARESEVCAVSATCLQAHNDFPSSYLQCDQTTLRWVRKSCQENFLFNFEQQTCIVPKRMSSLSRQQASGLVCTFSSCSNSNPCSVGTCNNGYCCSSGSNSGSAIIVGGGSSNCVGCQNAPQIITIPQNSCPGGGYSVGGCSSGYCATGYSCIQNQCCPSYNSAPRISVYTCPSGGNAVGACMSGRCASGYTCSNNVCCPQTTTTNPFVCPDGTQAAGGCVNGQCGTGYTCSNGLCCAGTSTTVKCLDGSDAVGACIPSCTGDGCGGVQVSYYCGSGYTCTTGNICCPINSCPNGGEVLGPTINGLCPTGYTVQGNLCCSATCTDGSTGLPSVNGVCIDGYSLTNGVCCPASVTCTDEISIGPCTGTGFNGGCPAGYACDSNQVNCCPVVRYTDESCQVGPAIDGLCPPGYVVVYIPNSPLITNGVNPGTCIDLQCTTGLCLTANQIGDCDTATDAGTCPTGYTCFTNAGICCSTTTFSRLRIGNSRQMAQKPNYGRPLHSYMPPPRPIGARCQLDGECVGQAEGLSMCHAGVCQCSPIAYTQGIACVRRKSFQMNDDPVIDAANDDKSSSSVSV,not soluble
2,MLRSKKMVLVGRKAPDFTAAAVLGNGEIVDNFNFAEFTKGKKAVVFFYPLDFTFVCPSELIAFDNRYEDFLAKGVEVIGVSIDSQFSHNAWRNTAVENGGIGQVKYPLVADVKHEICKAYDVEHPEAGVAFRGSFLIDEEGMVRHQVVNDLPLGRNIDEMLRMVDALNFHQTHGEVCPAQWEAGKAGMEASPKGVAAFLSQYSADLK,not soluble
3,MLSEGTHLRPYETLGAHADTMDGVTGTRFSVWAPNARRVSVVGQFNYWDGRRHPMRLRKESGIWELFIPGAHNGQLYKYEMIDANGNLRLKSDPYAFEAQMRPETASLICGLPEKVVQTEERKKANQFDAPISIYEVHLGSWRRHTDNNFWLSYRELADQLVPYAKWMGFTHLELLPINEHPFDGSWGYQPTGLYAPTRRFGTRDDFRYFIDAAHAAGLNVILDWVPGHFPTDDFALAEFDGTNLYEHSDPREGYHQDWNTLIYNYGRREVSNFLVGNALYWIERFGIDALRVDAVASMIYRDYSRKEGEWIPNEFGGRENLEAIEFLRNTNRILGEQVSGAVTMAEESTDFPGVSRPQDMGGLGFWYKWNLGWMHDTLDYMKLDPVYRQYHHDKLTFGILYNYTENFVLPLSHDEVVHGKKSILDRMPGDAWQKFANLRAYYGWMWAFPGKKLLFMGNEFAQGREWNHDASLDWHLLEGGDNWHHGVQRLVRDLNLTYRHHKAMHELDFDPYGFEWLVVDDKERSVLIFVRRDKEGNEIIVASNFTPVPRHDYRFGINQPGKWREILNTDSMHYHGSNAGNGGTVHSDEIASHGRQHSLSLTLPPLATIWLVREAE,soluble
4,MLSHETIWSAIDTLAERHQLTPSALAKRAGLDPTSFNKSKRFGPDGRKRWPSTESVSKVLEATGASVDQFFGYAFGRAQTMQPSGADNAIPLLGFAQAGSGGFFDDGGFPAGQGWDVVEFPSSPERKQGVYALEVQGESMMPLYRDGDILIVEPGAPVRRGDRVVLKSRDGEVMAKVLARQSPKNIELLSLNPEHPNRSFDMADVEWIARIIWASQ,not soluble
5,MLSKFVVVEVSNSNNTMTLVEYLVTHGFDKFAVVTDLVDHPSFKYKDGSSSPESPSTTASTAAQHTPPRTAVSTPTSINTPVPPHQNKQRHSIDKIAANLSTKKVSPSSIEKQLQRTSHNPLHQLSTPHALSQLQKLLEEQHKINQMNIQKKEQERQQAEIQRILLQQANAAQINHSFGLERLTPEYDDNHHSETISKASSEDLKTEPDSTDFGLGTSDDQVRASMLHLLHPVFAPAFGMLDAENIFGAASKPTTPASKRRNTDSNGAPSKKHRWLPVNELEESRSSRGKNCGRVHCKATYKCALCGKPTTLNSTGSRWNLLRHVIMIHSDCKPYKCWDCDFTGIKSNVISHARQCRHNAEDAHDITTDEMRAEWNLRLHECFPDYVRAKERGWQPEEVTVKKEEVEESPTLVKQELTLVKQEPTFAEQLEPMAQPLV,soluble
6,MLSMPWSEIDTVLLDMDGTLLDLHYDEHFWMQHLPQRYAELHGISFAMAWLELKPLFENNAGTLNWYCLDFWSTELKLSVRDLKREIAHMIALRPDAETFLAAIKQAGKRVIMITNAHRDSLSLKMERIELAPYFERLISSHDYGFPKESQHFWDALKAETAFDPARSLFIDDTLPILRSARHFGVAHLLAVSQPNSQKGPKDTEEFAAVGDYRELIKGL,not soluble
7,MLSNDILRSVRYILKANNTDLARILALGNVDATPEQIAIWLRKEEEEGFQRCPDIVLSSFLNGLIYEKRGKDEAAPALTAERRINNNIVLKKLRIAFSLKTDDILAILTGQLFRVSMPEITAMMRAPDHKNFRECGDQFMRYFLRGLAAREHAAK,not soluble
8,MLSSINMVKIGLEVHVHLTSLKTKLFCSCPSDYTGKDPNTNVCPICLGLPGAIPVLNENAVKAAIMVALAINAEIANSLIMVRKHYFYPDMAKNYQISQYDGPGSIAISKGGYLKLREGKTVRIRRINIEEDPAKIIYPTGSMLTSKYTLLDYNRSGMGLLEIVTEPDMTEPKEAREFLEKLRSILEHLGVCNCDLEGAMRADANVSVEGGERVEIKNIGSPREVEEALKYEIARQKAAIAQGLPVKRETRHWDSERKVTVPTRTKETEEDYRYFPDPDLPPYPITQDLIEEIRKTLPELPDLRIKRLVTQYGISDYDATVLVMDKALADLFEETAKHYSNYKKLVNLLINDYLRWLNDKNLRPSQSKAGSQHLVELLKLLDDGVITIKIAKEILPEIVLEGKMPSSIIKERGLVAIKDEDYLINVIKEVINEEPDAAEKAKNDPKVINYLVGKVMKKTGKRADPQLTNELIKKILGIK,soluble
9,MLSSKTFLNLVRTSRCRMSSSFAPKPAERTAQHSASIWVEFTTLAAETKAVNLGQGFPDSPAPKFVTDLLENLSKHPELTAAHQYTRGYGHPMLVDILAKMYSHFYNVQVDPMNEVLVTVGAYLSLYYAFLGWVNKGDEVLIIEPAYDCYYPQVKFAGGVPVPVVMNLAEGATSASQFTIDFADMESKINEKTKMLVINNPHNPTGKLFSRHELEKLAEIAKKHNLIVIADEVYEFHVWDKNDMVRFASLPGMYERTISIGSAGKAFSVTGWKLGWAVGPKQLLEPLKAIHQNCVFTCSTPTQMAIAEAFRLDWPKFLSDPENSYLATGLSGELRAKRDKLAKMLEEGNFRPIIPDAGYFMLADYVHLKEGINLPTEEDPDDFVFSRWLCREKKLAVIPPSAFYSARDNKLKNSNMVRLCYFKKDETLDAAEEILKKLGKQ,not soluble
10,MLSTNNITMQFGSKPLFENISVKFGGGNRYGLIGANGCGKSTFMKILGGDLVPSGGNVFLDPNERLGKLRQDQFAFENNTVLDTVIMGHGELWEVKEERDRIYAMAEMSEEDGYKVADLEVAYGEMDGYSAEARAGELLLGVGIPVEQHYGLMSEIAPGWKLRVLLAQALFSDPEILLLDEPTNNLDIDTIRWLEQVLNERNSTMIIISHDRHFLNMVCTHMADLDYGELRVYPGNYDEYMTAATQARERLLSDNAKKKAQISELQSFVSRFSANASKSKQATSRARQIDKIQLDEVKASSRQNPFIRFDQDRKLFRNALEVEMLTKGFDNGPLFKNLTLRLEVGEKVAILGPNGIGKSTLLKTLLGEYESDAGTVKWSENSKIGYYAQDHASDFDIDLTVFDWMSQWKQEKDDEQAVRSVLGRLLFSQDDIKKKVSVLSGGEKGRMLFGKLMMQRPNILVMDEPTNHLDMESIESLNMALEMYEGTLIFVSHDREFVSSLATRVIEMTPNKLIDFTGNYEDYLSSQGIHS,not soluble
11,MLTEGISIQSYDGHTFGALVGSPAKAPAPVIVIAQDIFGVNAFMRETVSWLVDQGYAAVCPDLYARQAPGTALDPQDERQREQAYKLWQAFDMEAGVGDLEAAIRYARHQPYSNGKVGLVGYSLGGALAFLVASKGYVDRAVGYYGVGLEKQLNKVPEVKHPALFHMGGQDHFVPAPSRQLITEGFGANPLLQVHWYEEAGHSFARTGSSGYVASAAALANERTLDFLVPLQSRKP,soluble
12,MLTFLIPTAKEMTIPKESHPHLLPQDSQAILKIMAAMTTEDLAKSYRIKEESAKKEQQRWQDMASQQSLAYPAYQLFNGLMYRHIKRDKLTTQEQAYLTQQVYITSSFYGIIPANHPIAEHRHDFHTRIKIEGQSLKSYWRPCYNQFAKEHPQVISLLSSEFDDVFSKDCKQLWISPKFMAEKEGQFKTHSTISKKARGAFLTACMENNCQTVDSLKSLVFAGFYYHPDLSTDHEFVYIKKEA,not soluble
13,MLTHQFNPYSACTSILVGKNASADGSTMIGRNEDSRAAWAKKMIIHAHREFEEPQTFKSQDQTHPFTMTLPKIRAKYTATPEWTAEYGLFEEDGINEYGVAMSATESAYCNTRVLAADPYVKDGIGEEAMVTVTLPYIHSAREGVERLGHIIEEHGTYETNGILFSDVNEVWYMETGAGHYWVAQRIPDDAYAVVANQLAIQEIDFSDHDNYLYAKDIRNFVLDNQLASMDNGLNFREVFGTADLSDRYYNTPRVWYGQRCFTPSVTQTPESFDLPFIQRADGLIHIDQVQGYLASHYQGTPFDPVGQGTATEKHQYRPISLAKTQESHVLQLRPDLPVTLSGIHWLAMGVAAESVYVPFYAGATTTPAAYQVATEKYDATSAYWIFKHVGILVDAHYHELHGELQTVQKELAIQLGHHIIVTDQQVAALTGDELAMALTKANQKAVDQALNTMQALAADLITKSTDMSPLNYDTDLNLLEHHHHHH,not soluble
14,MLTLENQIKEEREQDNSESPNGRTSPLVSQNNEQGSTLRDLLTTTAGKLRVGSTDAGIAFAPVYAMGAPSSKSGRTMPNILDDIIASVVENKIPPSKTSKINVKPELKEEPEESIISAVDENNKLYSDIPHSWICEKHILWLRIIRIAVIGSFSKNVGNKDSLQWFLVCIRKLEHHHHHH,not soluble
15,MLTLKGKYNEAKVFTDNVDDNTIGQIITLCNQPFAKDSKIRIMPDTHGGKGCVIGTTMTIQDKIVPNLVGVDIGCGLYVVKLKPGKLKMDFDKLDKVIRERVPSGSKTHDKPVDEFDLEGIVAPIHHGWVARSIGTLGGGNHFIEVNQGSDGIYLVIHSGSRVLGKEIAEYHQEVAYKRLDILRKELKLDATAAKKRGNLEMANNLNGEREQVKLDYDLSYVTGVDLKNYLNDMEIAQKFAARNRYVMAQIILKAMKWDKAVVSAFDCVHNYIDIEHNMLRKGATSAQLGEQIIVPLNMREGSILATGKGNADWNYSAPHGAGRMLSRSKAKAQISLESYQAAMKDVWTTSVSKKTIDEAPKAYKSAKQLLADVEDTMEIQEIIKPLYNFKALEHHHHHH,soluble
16,MLTTLAISNYRTLREIVLPLGRLNVVTGANGSGKSNLYKALRLLAQTAQGGVVNALALEGGLDSCFWAGPENLTKGMLAGDTPIEATVRQAPKRLKLGFAGEDFSYLIELGLPKPDSTTLFGLDPQIKREAIWNGAKYRPASVLVERRGPMVKSRSQDGQGWITLSAHLQSSDSIFTELADPERSPEVLKLRDSIRAWRFYDHFRTDTDAPARRPQLGTATPVLHHDGRDLPSAIQTIFEIGDKSAFDHAVSDAFPGAKVRITPQAGGILQLEFQQQGLLRPLYASELSDGTLRYLLLIAALLTPRPPELMVLNEPETSLHPDLLPALARLIAKASEVCQLWVVSHANRLINALNQFEECNTLALDKTLGQTQILGQDLLNTPSWLWQNRLEHHHHHH,soluble
17,MLTTTTNDILDQLRPLTVTKRGGAQTKFHPYKIDFVLRRLLATDDEVRVVKQALVAQYQDADNIDTRELRSTMMQILNAQGLTAAAKAYQDYFEAEQQRFAAATN,not soluble
18,MLTYQVKQGDTLNSIAADFRISTAALLQANPSLQAGLTAGQSIVIPGLPDPYTIPYHIAVSIGAKTLTLSLNNRVMKTYPIAVGKILTQTPTGEFYIINRQRNPGGPFGAYWLSLSKQHYGIHGTNNPASIGKAVSKGCIRMHNKDVIELASIVPNGTRVTINR,soluble
